Results: the nanobody polyreactivity screen of Harvey et al. (2022)

Assay: yeast display, Sf9 membrane polyspecificity reagent, FACS + sequencing; frameworks hold sequencing errors
Summary of the method: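 Nanobodies came from a synthetic yeast display library in Saccharomyces cerevisiae BJ5465, induced with galactose for 36–48 hours and stained for 1 hour at 4 °C with 10% biotinylated, detergent-solubilized Sf9 membrane reagent. Cells were enriched on streptavidin microbeads and then FACS-sorted, with low and high (top ~1%) gates set on anti-HA fluorescence for expression and streptavidin fluorescence for reagent binding. Each polyreactivity label reflects the gate a clone came from. Genes were amplified by colony PCR, sequenced by MiSeq 2 × 250 and filtered by CDR length.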

| Sequence | polyreactivity (PSR sort gate) |
| --- | --- |
| QVQLVESAVGLVQAGVSLRLSSAASGFIYYAYALGWYRQAPGKERELVAGISDSGASTYADSVKGRFTISRDNAKNTVYLQMNSLKPEDTAVYYCATTGYLSTKDYDEYGYWGQGTQVTVSS | low polyreactivity |
| QVQLVESCGDLVQAGASLRLSCAASGRIFVYYAMGWYRQAPGKERELVALITSLGSTNYSDSVKGRFTISRDNGKNCVYLQMNSLKPEDTAVYYCAAEWEYYGFDYWGQGTQVTVSS | low polyreactivity |
| QVQLVESCGGIVQAGGSLRLSCAASGRIFGENAMGWYRQEPGKEREFVAVISISDASTYYADSVKGRFTISRDNAKNTVFFQMNSLKPEDTAVYYCAAEGPDSYSMDYWGQGTQVTVSS | low polyreactivity |
| QVQLVESCGGLLQAGGSLPLSCPASGSISSYYAMGWYRQAPGKERELVASITSGASTNYADSVKGRFTISRDNAKNTVYLQMNSLKPEDTAVYYCAAYVVTYYYGTGYYSYDYWGQGSQVTVSS | low polyreactivity |
| QVQLVESCGGLVKAGGSLRLSCDASGSTFYNNAMGWYRQAPGKERELVAVITSGGGSTYYADSVKGRFTISRDNAKNTVYLQMNSLKPEDTAVYYCAAKRPFYKYLWLDVRGNYWGQGTQVTVSS | low polyreactivity |
| QVQLVESCGGLVQAGCSLRLSCAASGRTFAYNAMGWYRQAPGKERELVADITSGGSTYYADSVKGRFTISRDNAKNTVYLQMNSLKPEDTAVYYCAAYPQFWYWDYNYWGQGTQVTVSS | high polyreactivity |
| QVQLVESCGGLVQAGCSLRLSCAASGRTFVWYAMGWNRQAPGKERELVAAITLSGGSTYYADSVKGRFTISRDNAKNTVFLQMNSLIPEDTAVYYCAADGTYRPEDYDYWGQGTQVTVSS | low polyreactivity |
| QVQLVESCGGLVQAGGSLRISCAASGLTIRYYAMGWYRHAPWKERELVAAISWSGGSTYYADSVKGRFTISRDNAKNTVYLLMNILKPEDTAVYYCNTVGRSSSLSVFLIGYGYWGQGTQVNVSS | high polyreactivity |
| QVQLVESCGGLVQAGGSLRLICAASGRTFYHNAMGWYRQAPGKERELVATINSGGSTYAESVKGRFTISRDNAKNTVYFQMNSLKPEDTAVYYCAATFWSRSRFYYRYDYWGQGTQVTVSS | high polyreactivity |
| QVQLVESCGGLVQAGGSLRLSCAASGFIFFANTMGWYRQAPGKERELVAAITSDGSTYYADSVKGRFTISRDNAKNTVYLQMNSLKPEDTAVYYCNAQSNYADLAYWNDYWGQGTKVTVSS | low polyreactivity |
| QVQLVESCGGLVQAGGSLRLSCAASGFIFWCYTMGWYIQAPGKERELVAAITGSGGSTYYADSVKGRFTISRDNAKNTVNFQMNSLKPEDTAVYYCNAVSAYKWEYYYWGQGTLVTVSS | high polyreactivity |
| QVQLVESCGGLVQAGGSLRLSCAASGGTFGPNAMGWYRQAPGKERELVARISTSGGSTTYYADSVKGRFTISRDNAKNTFYLHMNSLKPEDTAVYYCAADYKPYYRRRYDYWGQGTQVTVSS | low polyreactivity |
| QVQLVESCGGLVQAGGSLRLSCAASGIIFEGNTLGWYRQAPGKEREFVAAISRNGGSTSYADSVKGRFTISRDNAKNTVYLQINSLKPEDTAVYYCAADVESFWGWRYEYWGQGTQVTVSS | low polyreactivity |
| QVQLVESCGGLVQAGGSLRLSCAASGITFFGYDMGWYRQAPWKEWELVAAITSTGRTYYADSVKGRFTISRDNAKKTDYLQMNSLTPEDTAVYYCNAARYPRSWYYKLDYWGQGTQVTVSS | high polyreactivity |
| QVQLVESCGGLVQAGGSLRLSCAASGLIFPVYAMGWYRQAPGKEREFVASIWRGGTTYYADSVKGRFTISRDNEKNTVYLQMNSLKPEDTAVYYCAARDYPRGLVFPFTKYDYWGQGTQVTVSS | high polyreactivity |
| QVQLVESCGGLVQAGGSLRLSCAASGLTFYQNDMGWYRQAPGKERELVAAITLSGDITYYADSVKGRFTISRDNAKNTVYLQMNSLKPEDTAVYYCAADGYLLYVQHPNGRRYDYWGQGTQVTVSS | low polyreactivity |
| QVQLVESCGGLVQAGGSLRLSCAASGRIFSYNPMGWYRQAPGKERELVATITSGDSTNYADSVKGRFTISRDNSKNSVYLQMNSLKQEDTAVYYCATDIYGLPVDYWGQGTQVSVSS | low polyreactivity |
| QVQLVESCGGLVQAGGSLRLSCAASGRTFGRNAMGWYRQAPGEREMVAVISRGGSTYYADSVKGRFTISRDNAKNTVYLQMNSLKPEDTAVYYCNADTVYTRTAPYDYWGQGTQVTVSS | low polyreactivity |
| QVQLVESCGGLVQAGGSLRLSCAASGRTFGYYAMGWYRQAPGKEREFVAAITAGGGSTYYADSVKGRFTISRDNAKNTVYLQMNSLKPEDTAVYYCAKRDYWGQGTQVTVSS | high polyreactivity |
| QVQLVESCGGLVQAGGSLRLSCAASGRTFVTYAMGWYRQAPGKERELVAAISASGGSTYYADSVKGRFTISRDNAKNTVYFQMNSLKPEDTAVYYCAKTYFLATPYGYWGQGTQVTVSS | low polyreactivity |
| QVQLVESCGGLVQAGGSLRLSCAASGSIFGYNDMGWYRQAPGKERELVATLTWGGGRTRYADSVKGRFTISRDNAKNTVYLQMNSLIPEDTAVDYCAADKRSYSYVRPPRNHEDYWGQGTQVTVSS | low polyreactivity |
| QVQLVESCGGLVQAGGSLRLSCAASGSISFYAMGWYRQAPGQERELVAAITTSGGRTYYADSVKGRFTISRDNAKNTVYLQMNSLKPEDTAVYYCAQQGWYYSNRDGYRWYDYWGQGTQVTVSS | high polyreactivity |

| Sequence | polyreactivity (PSR sort gate) |
| --- | --- |
| QVQLVESCGGLVQAGGSLRLSCAASGSISYYYAMGWYRQAPGKERELVAAITRTGTTNYADSVKGRFTISRDNAKNTVYLQMNSLKPEDTAVYYCAKRSTGRLQSYNYWGQGNQVTVSS | low polyreactivity |
| QVQLVESCGGLVQAGGSLRLSCAASGSTFLVNAMGWYRPAPGKERELVAASSRGGGSTYYADSVKGRFTISRDKAKNTVYLQMNSLKPEDTAVYYCNARKWTIYGAHYYWGQGTQVTVSS | high polyreactivity |
| QVQLVESCGGLVQAGGSLRLSCAASGSTLATYAMGWYRQAPWKERELDAVITRGGRTYYADSVKGRFTISRDNAKNTVYLQMNSLKPEDTAVFYCNATRAGENPDGGDEYWGQGTQVTVSS | high polyreactivity |
| QVQLVESCGGLVQAGGSLRLSCAASRSTFVKYTMGWYRQAPGKERELVATITWSGGSTYYADSVKGRFTISRDNAKNTVYLQLMSLKPEDTAVYYGAIDSGVYRTYQGRWYYYTDFYWGQGTQVTVSS | low polyreactivity |
| QVQLVESCGGLVQAGGSLRLSCAATGRIFAGYVMGWYRPAHGKERELVAAISWRGGRTYYADSVKGRFTISRDNAKNTVYLQMISLKPEDTAVYYCNAPYAVGNPADDYWGQGTQVTVSS | high polyreactivity |
| QVQLVESCGGLVQAGGSLRLSCDASGSIFIKKTMGWYRQAPGKEREMVAAISWSGGSTYYADSVKGRFTISRDNAKNTVYLQMNSLKPEDTAVYYCNAYYFWRTWFDTYDYWGQGTQVTVSS | high polyreactivity |
| QVQLVESCGGLVQAGGSLRLSSAASGSIFEYNAMGWYRQEPGKERELVGAITSTDSTYADSVKGRFTISRDNAKNTVYLQMNSLKPEDTAVYYCAAEDVIYYLTGQWREYDYWGQGTQVTVSS | low polyreactivity |
| QVQLVESCVVLVQAGGSLRLSCAASGSIFGYYAMGWYRQAPGKERELVAAISDGGTITYYADSVKGRFTISRDHAKNTVYLQMNSLKPEVTAVYYCAARSPPRYYEHRFYYWGQGTQVTVSS | high polyreactivity |
| QVQLVESGAGIVQAGGSLRLSCAASGRTFLDYTMGWYRQAPGKERELVAAIRTSAGSTYYADSVKGRFTISRDNAKKTVYLQLNSLKPEDTAVYYCAAVYYVHYYYSYDYWGQGTQVTVSS | low polyreactivity |
| QVQLVESGAGLFQAGGSLRLSCAASGRIFNQYGMAWYRQAPGKERELVAAIRSGDSTNYADSVKGRFTISRDNAKNTVFLQMNSLKPEVTAVYYCARDRPGDYDGYDYCGQGTQVTVSS | low polyreactivity |
| QVQLVESGAGLFQAGGSLRLSCAASGRTFVKNAMAWYRQAPGKERELVAAISTSGGRTYYADSVKGRFTISRDNAKKTVYLQMNSLKPEDTAVYYCGAVLYATRPVYGFDSCGQGTQVTVSS | high polyreactivity |
| QVQLVESGAGLVEAGASLRLSCAASGSNFRINAMGLYRQAPGKERELVAAITASGGSTYADSVKGRFTISRDNAKNTVYLQMNSLKPEDTAVYDCAARYFPRHRYYFWGQVTQVTVSS | high polyreactivity |
| QVQLVESGAGLVHAGGSLRLSCAASGSIFEGYAMGWYRQAPGKERELVARITSDDDSTYYADSVKGRFTNSRDTAKNTVYLQMYSLKPEDTAVFYCNADYYWTTLAMDSWGQGTQVTVSS | low polyreactivity |
| QVQLVESGAGLVHAGGSLRLSCASSGRTFAKYAMGWYRQAPGKERELVAAISGRSGSTYYADSVKGRFTISRDNPKNTVYLQMNSLKPEDTAVYYCAASGGSRYDWVQGTQVTVSS | high polyreactivity |
| QVQLVESGAGLVMAGGSLRLSCAASGRTISIYAMGWYRQAPGKERQLVAAISQSSSITYYADSVKGRFTLSRDNANNTVYLQMISLKPEDTACYYCNAVVLRYQGSWLEYWGQGTQVTVSS | low polyreactivity |
| QVQLVESGAGLVQAGCRLRLSCASSGIIFSPNAIGWYRQAPGKERELVAAISKRGGSTYYADSVKGRFTISRDNAKNTVYLQLHSLKQEDTAVYYCAKRQQQSSGYDYWGQGTQVTVSS | high polyreactivity |
| QVQLVESGAGLVQAGGRLRLRCDASGFIFRYYAMGWYRQAPGKERELVAAISESGASTYYADSVKGRFTISRDNAKNTVYLQMNSLKPEDTAVYYCAAKPRKSGPYYFYDLNYWGQGTQVTVSS | high polyreactivity |
| QVQLVESGAGLVQAGGRLRLSCADSGYIFKSYAIGWYRQAPGKEREFVAAISWSGGSTYADSVKGRFTISRDNAKNTVYLQMNSLKPEDTAVYSCAAVDYYYYGVYSSWYEYWGQGTQVTVSS | low polyreactivity |
| QVQLVESGAGLVQAGGRLRLSCAPSGSTFIYNAMGWYRQAPGKERELVASITGGTSTNYADSVKGRFTISRDNAKNTVYLQMNSLKPEDTAVYYCAAVWVWGEYDYWGQGTQVTVSS | low polyreactivity |
| QVQLVESGAGLVQAGGSLRLSCAASGFIFVKYVMGWYRQAPGKERELDATITNGVSTNYADSVKGRFTISRDNAKNTVYLQMNSLKPEDTAVYYCNTGSTAWYFSGDYWGQGTQVTVSS | low polyreactivity |
| QVQLVESGAGLVQAGGSLRLSCAASGFTFKSNAMGWYRQAPGKERELVATISWGGASTSYADSVKGRFTISRDNAKNNVYLQMNSLKPEDTAVYYCKVRAQRRHGGYDHWGLGTQVTVSS | low polyreactivity |
